Positions of bridges follow the written chain, without caps; N, C: chain ends. Non-standard residues stand in square brackets, D forms with d. Primed or numbered codes have the meaning given here. PEG3″ = N-terminal PEG3 linker; FAM″ = 5,6-carboxyfluorescein; S5 = C=CCCC[C@](C)(N)C(=O)O; Nle = CCCC[C@H](N)C(=O)O

For assay [1], the target named is T1, MBP-tagged RocCOR LRRK2 protein (human, UniProt Q5S007 1293-1840, limits assumed).
T1 construct: domain: RocCOR; Purified from E. coli; FP done in the presence of GTP and MgCl2; also called His6-MBP-tagged RocCOR; not shown: N-terminal His6-MBP tag
T1 sequence (looked up): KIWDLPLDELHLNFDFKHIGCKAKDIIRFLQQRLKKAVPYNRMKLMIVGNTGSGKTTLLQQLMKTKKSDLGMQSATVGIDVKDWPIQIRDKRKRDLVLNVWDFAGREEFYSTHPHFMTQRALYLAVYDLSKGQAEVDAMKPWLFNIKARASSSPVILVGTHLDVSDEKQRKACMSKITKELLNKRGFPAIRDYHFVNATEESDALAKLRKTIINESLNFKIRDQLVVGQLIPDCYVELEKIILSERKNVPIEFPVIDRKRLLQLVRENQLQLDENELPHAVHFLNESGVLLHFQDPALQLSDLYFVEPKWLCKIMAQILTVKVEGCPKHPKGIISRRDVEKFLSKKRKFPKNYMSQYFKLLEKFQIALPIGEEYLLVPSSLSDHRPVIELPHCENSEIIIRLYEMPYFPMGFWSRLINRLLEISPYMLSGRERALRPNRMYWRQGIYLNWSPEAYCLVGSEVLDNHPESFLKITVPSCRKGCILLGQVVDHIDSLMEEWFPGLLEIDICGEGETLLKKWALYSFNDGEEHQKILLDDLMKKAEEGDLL
Kind of assay: fluorescence polarization, 10 nM FAM-labeled peptide.

Assay [2] deals with T2, MBP-tagged CORB (human, UniProt Q5S007 1672-1840).
T2 construct: range 1672-1840; Purified from E. coli BL21(DE3); also called C-terminal part of the COR domain; His6-MBP-tagged COR-B; not shown: N-terminal His6-MBP tag (pDEST-566)
Kind of assay: fluorescence polarization, 10 nM FAM-labeled peptide, MBP-CORB titrated. The protocol:
Fluorescence Polarization (FP) Assays. […] Each FAM-labeled peptide was plated at a final in-well concentration of 10 nM in 384-well microtiter plates. 1:2 dilutions of the protein were then performed from a concentration range of 5 μM to 1 nM. For each peptide: protein interaction, a range of at least 10 protein concentrations was examined, and each concentration was performed in triplicate. The assay was performed in FP buffer (20 mM MOPS pH 7, 150 mM NaCl, and 0.005% CHAPS) at room temperature. The peptide:protein mixture was incubated at room temperature for 2 hours with readings taken every 30 minutes. The final readings were obtained at 2 hours.
The binding affinities of these two peptides towards LRRK2 was measured using fluorescence polarization (FP). Two MBP-tagged protein constructs, CORB and RocCOR, were purified and plated in concentrations ranging from 5 μM to 1 nM along with 10 nM FAM-labeled peptide, 2 mM GTP and 10 mM MgCl_2.
(In fluorescence polarisation assays a small probe gives low polarisation when free and higher when bound to something large.)

The target of assay [3] is T2, MBP-tagged CORB. Kind of assay: fluorescence polarization, 10 nM FAM-labeled peptide.

B1: FAM-labeled LRIP4 scramble (peptide)
peptide: {FAM″-PEG3″}-Q[Nle]DKAESKNKERKLC[S5]TIK[S5]-NH2
modifications: staple 16-20
notes: Scrambled control of LRIP4; also called scrambled peptide control
For the molecule B1, the binding result in assay [1] is on record as “no binding (tested: protein 5 µM to 1 nM)”. As usually defined, the Kd is the equilibrium constant for the complex coming apart. A lower Kd goes with a tighter complex. For {FAM″-PEG3″}-KGEGE[S5]LLK[S5]WK-NH2 (staple 6-10, 16) [FAM-labeled LCIP1], the dissociation constant Kd in assay [2] came to 1 µM.

B2: FAM-labeled LCIP1 scramble (peptide)
peptide: {FAM″-PEG3″}-GKWEK[S5]GEL[S5]KL-NH2
modifications: staple 6-10
notes: Scrambled control of LCIP1; also called scrambled peptide control
For B2, in assay [3], the binding result is “no binding (tested: protein 5 µM to 1 nM)”.

The values above are taken from patent US12565520B2, “Chemically-stabilized allosteric modulators of leucine-rich repeat kinase 2 (LRRK2)” (UNIVERSITY OF GEORGIA RESEARCH FOUNDATION, INC., priority 2020, dated 2026).
